Measured values taken from US20030159166A1 (ORTHO MCNEIL PHARMACEUTICAL, published 2003).

Biological target: T1, recombinant soluble HLA-DM (human, UniProt P28067 27-233; P28068 19-218)
T1 construct: extracellular domain; Expressed in Drosophila Schneider-2 cells, purified on Ni-NTA agarose and by gel filtration
Assay: in vitro complex formation, isolation on Ni-NTA agarose by the His tag of DM

B1: DO-Fc fusion protein (extracellular domains of DOA and DOB fused to the Fc domain of human IgG1) (Fc fusion)
MHC II alpha: TKADHMGSYGPAFYQSYGASGQFTHEFDEEQLFSVDLKKSEAVWRLPEFGDFARFDPQGGLAGIAAIKAHLDILVERSNRSRAINVPPRVTVLPKSRVELGQPNILICIVDNIFPPVINITWLRNGQTVTEGVAQTSFYSQPDHLFRKFHYLPFVPSAEDVYDCQVEHWGLDAPLLRHWELQVPIPPPDAME
MHC II beta: TDSPEDFVIQAKADCYFTNGTEKVQFVVRFIFNLEEYVRFDSDVGMFVALTKLGQPDAEQWNSRLDLLERSRQAVDGVCRHNYRLGAPFTVGRKVQPEVTVYPERTPLLHQHNLLHCSVTGFYPGDIKIKWFLNGQEERAGVMSTGPIRNGDWTFQTVVMLEMTPELGHVYTCLVDHSSLLSPVSVEWRAQSEYSWRK
notes: extracellular domain; Expressed in Drosophila Schneider-2 cells, purified on protein A sepharose; also called HLA-DO; not shown: human IgG1 Fc domain
- binding result: binds
